Source: patent US20230038638A1, “COMPLEMENT FACTOR I-RELATED COMPOSITIONS AND METHODS” (published 2023)
Residue numbers refer to the chain shown, from its start.

What was measured:
human C4b (human) [1] = molecular target: T1, human C4b (human) (UniProt P0C0L5)
T1 sequence: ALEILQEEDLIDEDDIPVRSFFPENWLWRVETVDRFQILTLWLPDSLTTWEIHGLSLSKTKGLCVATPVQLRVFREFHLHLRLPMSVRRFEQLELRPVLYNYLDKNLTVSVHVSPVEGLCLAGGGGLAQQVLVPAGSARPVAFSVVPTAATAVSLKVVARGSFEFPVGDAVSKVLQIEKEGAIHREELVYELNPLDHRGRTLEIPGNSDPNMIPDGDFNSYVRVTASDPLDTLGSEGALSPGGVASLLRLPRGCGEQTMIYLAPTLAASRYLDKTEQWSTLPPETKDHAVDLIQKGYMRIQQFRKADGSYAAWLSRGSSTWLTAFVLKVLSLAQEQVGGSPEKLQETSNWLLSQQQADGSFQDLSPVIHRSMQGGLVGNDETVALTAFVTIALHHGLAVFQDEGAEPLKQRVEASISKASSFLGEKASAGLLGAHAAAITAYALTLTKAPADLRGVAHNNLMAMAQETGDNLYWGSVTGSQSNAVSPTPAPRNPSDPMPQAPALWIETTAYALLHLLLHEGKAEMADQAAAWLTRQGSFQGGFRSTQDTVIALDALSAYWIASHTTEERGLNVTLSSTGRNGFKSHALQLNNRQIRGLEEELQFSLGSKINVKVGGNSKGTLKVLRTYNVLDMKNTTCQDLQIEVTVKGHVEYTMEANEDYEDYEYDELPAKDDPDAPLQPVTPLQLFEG

[2] = molecular target: soluble human C3b (human) (UniProt P01024)
human C4b (human) [3] = molecular target: T2, human C4b (human) (UniProt P0C0L4)
T2 sequence: T1 sequence with T151A, G317D, L364P, S365C, I368L, H369D, S420N, A451V, R454L, A530S

Substance | C4b Screen Ref Fold (fold of CFI-HSA wild type) (human C4b (human) [1]) | iC3b Screen Ref Fold (fold of CFI-HSA wild type) [2] | C4c EC50 (human C4b (human) [3]) [µM] | C4b Screen Ref Fold (fold vs CFI-HSA wild type) (human C4b (human) [1]) | iC3b Screen Ref Fold (fold vs CFI-HSA wild type) [2] | C4c EC50 (nM) (human C4b (human) [3])
CFI-HSA variant N531G; P558S (enzyme) | 5.28 | 1.35 | 0.0632 |  |  | 
CFI-HSA variant N531G; P535G; K534Q (enzyme) | 4.47 | 0.93 | 0.118 |  |  | 
CFI-HSA variant Y408L; E457G; N422K (enzyme) | 3.1 | 1.87 | 0.0436 |  |  | 
CFI-HSA variant Y408L; E457G; N531G; K534Q (enzyme) | 5.16 | 0.54 | 0.0264 |  |  | 
CFI-HSA variant E457G; P558S (enzyme) | 4.98 | 1.04 | 0.0659 |  |  | 
CFI-HSA variant S552G; Y553H (enzyme) | 2.53 | 0.26 | 0.0745 |  |  | 
CFI-HSA variant Y408L; N531G; P535A (enzyme) |  |  |  | 5.22 | 1.02 | 118
CFI-HSA variant E530D-N531G; G533A-K534Q-P535K-E536N (enzyme) |  |  |  | 1.4 | 1.63 | 470
CFI-HSA variant S552G; Y553H; F559L; V565I (enzyme) | 3.1 | 0.27 | 0.0836 |  |  | 
CFI-HSA variant N531G; K534Q (enzyme) | 5.23 | 1.39 | 0.0435 |  |  | 
CFI-HSA variant Y408L; N531G; E457G; E461Q; R462K; F464Y (enzyme) |  |  |  | 5.37 | 0.46 | 82.1
CFI-HSA variant Y408L; E457G; N531G; P535G; N422K (enzyme) | 3.64 | 1.77 | 0.0597 |  |  | 
CFI-HSA variant F464G (enzyme) | 0.24 | 0.01 | > 1 |  |  | 
CFI-HSA variant Y20F; E38A; S250A; D425A; Y408L; N531G; E457G; E461Q; R462K; F464Y (enzyme) |  |  |  | 6.31 | 0.77 | 106
CFI-HSA variant Y408L; E457G; K534Q (enzyme) | 5.24 | 0.97 | 0.0838 |  |  | 
CFI-HSA variant Y408L; E457G; N531G; P535G; D425K (enzyme) | 5.01 | 1.12 | 0.0322 |  |  | 
CFI-HSA variant N531G; P535G (enzyme) | 4.19 | 1.28 | 0.126 |  |  | 
CFI-HSA variant Y408L; D425R; E416A (enzyme) | 0.43 | 2.26 |  |  |  | 221
CFI-HSA variant E457G; N531G; P535G (enzyme) | 5.48 | 1.27 | 0.054 |  |  | 
CFI-HSA variant E457G; N531G; E416A (enzyme) | 5.02 | 2.66 |  |  |  | 5.4
CFI-HSA variant Y408L; E457G; N531G; N422K (enzyme) | 3.66 | 0.95 | 0.0484 |  |  | 
CFI-HSA variant E457G; P535G; K534Q (enzyme) | 3.85 | 0.82 | 0.154 |  |  | 
